Patent US20240092836A1

Molecular target: Recombinant Human CTLA4-Fc chimera (R&D systems) (human) (UniProt P16410)
Assay: ELISA, signal over SA

Binder	ELISA S/N(SA)
GGCLHPFLPIRSVHFCPR (peptide, not shown: large carriers; small tags and cut ends) [C4m#19-5th4w-NN6-67]	45.4
GGCLHPFLPIRSVHFCPF (peptide, not shown: large carriers; small tags and cut ends) [C4m#19-5th4w-NN6-15]	39.9
GGCLHPVLPIRSRHFCPV (peptide, not shown: large carriers; small tags and cut ends) [C4m#19-5th4w-NN6-25]	38.9
GGCWHPWLPILSPHFCPR (peptide, not shown: large carriers; small tags and cut ends) [C4m#19-5th4w-NN6-21]	37.5
GGCWHPFLPIRSLHFCPR (peptide, not shown: large carriers; small tags and cut ends) [C4m#19-5th4w-NN6-39]	35.6
GGCMHPFLPIRSMHFCPL (peptide, not shown: large carriers; small tags and cut ends) [C4m#19-5th4w-NN6-70]	35.5
GGCWHPFLPIRSYHFCPW (peptide, not shown: large carriers; small tags and cut ends) [C4m#19-5th2w-NNS6-14]	34.7
GGCPHPWLPIFSRHFCPV (peptide, not shown: large carriers; small tags and cut ends) [C4m#19-5th4w-NN6-47]	34.2
GGCLHPGLPIRSLHFCPR (peptide, not shown: large carriers; small tags and cut ends) [C4m#19-5th4w-NN6-54]	33.3
GGCFHPYLPIRSWHFCSR (peptide, not shown: large carriers; small tags and cut ends) [C4m#19-5th4w-NN6-81]	32.3
GGCRHPFLPIYSVHFCAC (peptide, not shown: large carriers; small tags and cut ends) [C4m#19-5th4w-NN6-53]	32.2
GGCFHPFLPIRSDHFCSR (peptide, not shown: large carriers; small tags and cut ends) [C4m#19-5th4w-NN6-34]	32.2
GGCRHPYLPIVSRHFCPF (peptide, not shown: large carriers; small tags and cut ends) [C4m#19-5th4w-NN6-4]	31.6
GGCWHPFLPIRSSHFCPS (peptide, not shown: large carriers; small tags and cut ends) [C4m#19-5th2w-NNS6-21]	31.1
GGCSHPQLPILSDHFCSA (peptide, not shown: large carriers; small tags and cut ends) [C4m#19-5th4w-NN6-20]	30.6
GGCRHPFLPIVSTHFCSR (peptide, not shown: large carriers; small tags and cut ends) [C4m#19-5th4w-NN6-77]	30.5
GGCRHPHLPIWSWHFCGR (peptide, not shown: large carriers; small tags and cut ends) [C4m#19-5th4w-NN6-23]	30.2
GGCRHPFLPIVSWHFCGR (peptide, not shown: large carriers; small tags and cut ends) [C4m#19-5th4w-NN6-44]	30.1
GGCVHPFLPIRSVHFCAL (peptide, not shown: large carriers; small tags and cut ends) [C4m#19-5th4w-NN6-92-1]	30
GGCRHPYLPIWSIHFCQK (peptide, not shown: large carriers; small tags and cut ends) [C4m#19-5th4w-NN6-19]	29.7
GGCWHPFLPISSPHFCGR (peptide, not shown: large carriers; small tags and cut ends) [C4m#19-5th4w-NN6-65-1]	29.5
GGCVHPSLPILSVHFCPR (peptide, not shown: large carriers; small tags and cut ends) [C4m#19-5th4w-NN6-55-4]	29.5
GGCMHPFLPIQSVHFCSR (peptide, not shown: large carriers; small tags and cut ends) [C4m#19-5th2w-NNS6-22]	29.3
GGCCHPWLPIVSTHFCGL (peptide, not shown: large carriers; small tags and cut ends) [C4m#19-5th4w-NN6-93]	28.9

Binder	ELISA S/N(SA)
GGCFHPYLPIRSWHFCGR (peptide, not shown: large carriers; small tags and cut ends) [C4m#19-5th4w-NN6-9]	28.8
GGCLHPFLPIRSVHFCGC (peptide, not shown: large carriers; small tags and cut ends) [C4m#19-5th4w-NN6-52]	28.6
GGCMHPYLPIKSVHFCPL (peptide, not shown: large carriers; small tags and cut ends) [C4m#19-5th2w-NNS6-55]	28.3
GGCFHPFLPIRSLHFCCR (peptide, not shown: large carriers; small tags and cut ends) [C4m#19-5th4w-NN6-82]	28.3
GGCKHPVLPIWSWHFCRI (peptide, not shown: large carriers; small tags and cut ends) [C4m#19-5th4w-NN6-50]	28.1
GGCWHPALPIRSWHFCPR (peptide, not shown: large carriers; small tags and cut ends) [C4m#19-5th4w-NN6-78]	27.9
GGCMHPYLPIVSVHFCPC (peptide, not shown: large carriers; small tags and cut ends) [C4m#19-5th4w-NN6-57]	27.7
GGCLHPHLPIWSLHFCPL (peptide, not shown: large carriers; small tags and cut ends) [C4m#19-5th4w-NN6-59]	27.6
GGCWHPWLPIYSHHFCPI (peptide, not shown: large carriers; small tags and cut ends) [C4m#19-5th4w-NN6-24]	27.6
GGCPHPFLPIWSVHFCPF (peptide, not shown: large carriers; small tags and cut ends) [C4m#19-5th4w-NN6-32]	27.2
GGCWHPFLPIQSLHFCGV (peptide, not shown: large carriers; small tags and cut ends) [C4m#19-5th4w-NN6-56]	27.1
GGCQHPWLPISSWHFCPR (peptide, not shown: large carriers; small tags and cut ends) [C4m#19-5th2w-NNS6-67]	25.5
GGCSHPFLPILSVHFCPF (peptide, not shown: large carriers; small tags and cut ends) [C4m#19-5th4w-NN6-69-1]	24.9
GGCLHPWLPIVSVHFCAR (peptide, not shown: large carriers; small tags and cut ends) [C4m#19-5th4w-NN6-69-3]	24.9
GGCWHPVLPIRSCHFCAV (peptide, not shown: large carriers; small tags and cut ends) [C4m#19-5th4w-NN6-79]	24.9
GGCLHPWLPIRSRHFCSR (peptide, not shown: large carriers; small tags and cut ends) [C4m#19-5th4w-NN6-68]	24.7
GGCLHPFLPIFSSHFCAL (peptide, not shown: large carriers; small tags and cut ends) [C4m3127-4th-NNS6-28]	23.2
GGCRHPFLPIWSWHFCPF (peptide, not shown: large carriers; small tags and cut ends) [C4m#19-5th4w-NN6-7]	23
GGCWHPFLPIFSVHFCGC (peptide, not shown: large carriers; small tags and cut ends) [C4m#19-5th4w-NN6-85]	22.9
GGCRHPYLPIASPHFCPG (peptide, not shown: large carriers; small tags and cut ends) [C4n#19-5th2w-NNS6-71]	22.9
GGCKHPVLPIVSLHFCPW (peptide, not shown: large carriers; small tags and cut ends) [C4m3127-4th-NNS6-90]	22.9
GGCLHPFLPISSWHFCGR (peptide, not shown: large carriers; small tags and cut ends) [C4m#19-5th4w-NN6-37]	22.7
GGCFHPYLPISSVHFCGR (peptide, not shown: large carriers; small tags and cut ends) [C4m#19-5th2w-NNS6-94]	22.4
GGCWHPYLPIVSWHFCSR (peptide, not shown: large carriers; small tags and cut ends) [C4m#19-5th4w-NN6-51]	22.1

Binder	ELISA S/N(SA)
GGCRHPFLPIWSHHFCVC (peptide, not shown: large carriers; small tags and cut ends) [C4m#19-5th4w-NN6-11]	22.1
GGCLHPVLPIRSFHFCWR (peptide, not shown: large carriers; small tags and cut ends) [C4m#19-5th4w-NN6-87]	21.4
GGCRHPWLPIVSWHFCSR (peptide, not shown: large carriers; small tags and cut ends) [C4m3127-4th-NNS6-87]	21.4
GGCRHPWLPIVSYHFCSS (peptide, not shown: large carriers; small tags and cut ends) [C4m#19-5th4w-NN6-90]	21.2
GGCKHPFLPISSHHFCPY (peptide, not shown: large carriers; small tags and cut ends) [C4m#19-5th2w-NNS6-25]	21.1
GGCRHPFLPIFSKHFCEL (peptide, not shown: large carriers; small tags and cut ends) [C4m3127-4th-NNS6-83]	20.7
GGCRHPVLPIVSLHFCPG (peptide, not shown: large carriers; small tags and cut ends) [C4m3127-4th-NNS6-17]	20.4
GGCWHPYLPIRSVHFCGR (peptide, not shown: large carriers; small tags and cut ends) [C4m#19-5th2w-NNS6-12]	20.4
GGCVHPYLPISSIHFCSM (peptide, not shown: large carriers; small tags and cut ends) [C4m3127-4th-NNS6-72]	20
GGCRHPFLPIVSFHFCPF (peptide, not shown: large carriers; small tags and cut ends) [C4m#19-5th2w-NNS6-90]	19.7
GGCAHPVLPIRSLHFCPH (peptide, not shown: large carriers; small tags and cut ends) [C4m#19-5th4w-NN6-86]	19.7
GGCRHPFLPISSIHFCCI (peptide, not shown: large carriers; small tags and cut ends) [C4m#19-5th4w-NN6-58]	18.7
GGCAHPFLPIFSPHFCPF (peptide, not shown: large carriers; small tags and cut ends) [C4m#19-5th2w-NNS6-3]	18.4
GGCWHPHLPIVSSHFCLF (peptide, not shown: large carriers; small tags and cut ends) [C4m#19-5th4w-NN6-2]	18.4
GGCPHPWLPIASVHFCPF (peptide, not shown: large carriers; small tags and cut ends) [C4m#19-5th4w-NN6-71]	17.4
GGCQHPYLPIWSFHFCPF (peptide, not shown: large carriers; small tags and cut ends) [C4m#19-5th4w-NN6-62]	17.2
GGCWHPFLPIMSFHFCPY (peptide, not shown: large carriers; small tags and cut ends) [C4m#19-5th4w-NN6-30]	16.7
GGCSHPFLPIFSLHFCPV (peptide, not shown: large carriers; small tags and cut ends) [C4m#19-5th4w-NN6-38]	16.6
GGCRHPFLPIFSLHFCAR (peptide, not shown: large carriers; small tags and cut ends) [C4m#19-5th2w-NNS6-8]	16.5
GGCWHPYLPIFSVHFCPR (peptide, not shown: large carriers; small tags and cut ends) [C4m3127-4th-NNS6-16]	16.5
GGCWHPYLPILSRHFCQA (peptide, not shown: large carriers; small tags and cut ends) [C4m#19-5th4w-NN6-63]	16.5
GGCWHPFLPIRSVHFCCR (peptide, not shown: large carriers; small tags and cut ends) [C4m#19-5th4w-NN6-14]	16.1
